Experimental findings from patent US9340788B2 (priority 2007, dated 2016) are described below.

Data set [1] deals with HCMV. Nature of the data set: HCMV pp65 western blot in HEL cells. As to conditions: siRNA 48 h prior to HCMV MOI of 1, western blot 2 h post-infection, indicates viral entry not inhibited. Format: cell-based, Human cytomegalovirus. How it is done: HEL cells were transfected with siRNA against the PI3K p110α catalytic subunit (a mixture of 4 RNAi oligos, “smart pool” from Dharmacon) or non-targeting, control siRNA (Dharmacon) for 48 h prior to infection with HCMV (MOI of 1) for 1 hour. Cells were washed and cultured for 2 h-6 days. a. […] The mean number of IE1 positive cells is reduced by ˜50% in the PI3 Kp110α knockdown cultures—panel c**, p<0.01. PI3K p110α knock down is also significant (b, left panels, red fluorescence). However, unlike cells that lack a functional PDGFRα, PI3K p110α knock down cells are capable of producing infectious virus as shown by IE1 staining of the secondary infected cultures (panel d). A 10% decrease in infectious virus production in the cells treated with p110α siRNA is insignificant*, bars represent SD, […], panel c. Experiments were repeated twice, all conditions were assayed in triplicate. Similar results were obtained with both Towne-infected cultures (illustrated in this figure) and CMV-GFP.
Upper panel: HEL cells pretreated with anti-human PDGFRα antibody (10 ng/ml, for 30 min, clone AF-307-NA from R&D; lanes 1 and 4) or with AG 1295 (lane 3, […], from Calbiochem) were stimulated with Towne HCMV (lanes 2-4) or Mock infected (lane 1) for 10 min at 37 C. […]
Western Blot, Immunoprecipitation, and Immunofluorescence analyses. […] Cell lysates were analyzed by SDS-PAGE. […]

For data set [2], the system named is HCMV. In words: HCMV IE1 / viral gene expression, western blot of infected cells. Format: cell-based, Human cytomegalovirus. The conditions noted are these: HEL; p110α knockdown vs non-targeting siRNA. For orientation: Immunoblotting shows a protein as a band on a membrane.

B1: p110α siRNA: mixture of 4 RNAi oligos, "smart pool" from Dharmacon, against PI3K p110α, SEQ ID NO: 5-8 (nucleic acid)
chain 1: GCGAAAUUCUCACACUAUU
chain 2: GUGGUAAAGUUCCCAGAUA
chain 3: GCUUAGAGUUGGAGUUUGA
chain 4: GACCCUAGCCUUAGAUAAA
modifications: pool of four siRNAs, further chemistry not given here
Regarding B1, in the data set with HCMV [1], the “pp65 HCMV expression” value is given as “unchanged”. In addition, the viral gene expression entry in the data set with HCMV [2] is “delay”.
